Measured values reported in PMC4599408.

Target: GST-Kv4.3 NT (human)
Assay: pull-down

Sequence of GST-Kv4.3 NT (human) (Q9UK17 whole entry): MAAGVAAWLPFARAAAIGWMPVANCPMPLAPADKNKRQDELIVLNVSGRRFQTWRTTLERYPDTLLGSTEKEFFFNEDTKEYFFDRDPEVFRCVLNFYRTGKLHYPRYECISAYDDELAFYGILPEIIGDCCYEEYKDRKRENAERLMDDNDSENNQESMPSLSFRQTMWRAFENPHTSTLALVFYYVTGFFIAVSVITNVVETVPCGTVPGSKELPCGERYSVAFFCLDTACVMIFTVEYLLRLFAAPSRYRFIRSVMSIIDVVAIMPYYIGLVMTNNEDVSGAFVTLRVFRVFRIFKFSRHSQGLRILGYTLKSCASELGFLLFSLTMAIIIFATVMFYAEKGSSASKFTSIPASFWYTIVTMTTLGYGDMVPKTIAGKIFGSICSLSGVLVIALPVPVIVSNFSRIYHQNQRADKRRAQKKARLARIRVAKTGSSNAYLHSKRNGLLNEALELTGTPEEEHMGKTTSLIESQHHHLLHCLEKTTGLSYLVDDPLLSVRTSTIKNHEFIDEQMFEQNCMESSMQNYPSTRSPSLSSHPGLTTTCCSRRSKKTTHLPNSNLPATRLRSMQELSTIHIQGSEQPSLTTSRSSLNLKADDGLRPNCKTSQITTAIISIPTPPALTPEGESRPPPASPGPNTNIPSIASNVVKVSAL

Work on “DPP6-T p.H332R variant, in vitro translated and radiolabeled (natural protein)” yielded a fold binding activity relative to DPP6-T of over 2 fold.
